Experimental data published in article PMC5467213, “Architecture of the RNA polymerase II-Paf1C-TFIIS transcription elongation complex” (Nature Communications, 2017).

Assays:
[1] = biological target: T1, Ctr9 (full length, C-terminal hexahistidine tag) (S. cerevisiae, UniProt P89105 1-1077); assay: co-purification after coexpression (Ni-NTA, cation exchange, SEC); subunits coexpressed in E. coli from three vectors, cells colysed; Ni-NTA (hexahistidine tag on Ctr9), HiTrap SP cation exchange, Superose 6 size exclusion; SDS-PAGE, subunits confirmed by mass spectrometry; details: partners not purified
T1 construct: Ctr9, S. cerevisiae, full length, amplified from genomic DNA, in pET24b; source: E. coli BL21 CodonPlus(DE3)RIL, coexpressed with the other subunits; in lysate and purified as part of Paf1C; not shown: His6, C-terminal, kept
T1 sequence (looked up): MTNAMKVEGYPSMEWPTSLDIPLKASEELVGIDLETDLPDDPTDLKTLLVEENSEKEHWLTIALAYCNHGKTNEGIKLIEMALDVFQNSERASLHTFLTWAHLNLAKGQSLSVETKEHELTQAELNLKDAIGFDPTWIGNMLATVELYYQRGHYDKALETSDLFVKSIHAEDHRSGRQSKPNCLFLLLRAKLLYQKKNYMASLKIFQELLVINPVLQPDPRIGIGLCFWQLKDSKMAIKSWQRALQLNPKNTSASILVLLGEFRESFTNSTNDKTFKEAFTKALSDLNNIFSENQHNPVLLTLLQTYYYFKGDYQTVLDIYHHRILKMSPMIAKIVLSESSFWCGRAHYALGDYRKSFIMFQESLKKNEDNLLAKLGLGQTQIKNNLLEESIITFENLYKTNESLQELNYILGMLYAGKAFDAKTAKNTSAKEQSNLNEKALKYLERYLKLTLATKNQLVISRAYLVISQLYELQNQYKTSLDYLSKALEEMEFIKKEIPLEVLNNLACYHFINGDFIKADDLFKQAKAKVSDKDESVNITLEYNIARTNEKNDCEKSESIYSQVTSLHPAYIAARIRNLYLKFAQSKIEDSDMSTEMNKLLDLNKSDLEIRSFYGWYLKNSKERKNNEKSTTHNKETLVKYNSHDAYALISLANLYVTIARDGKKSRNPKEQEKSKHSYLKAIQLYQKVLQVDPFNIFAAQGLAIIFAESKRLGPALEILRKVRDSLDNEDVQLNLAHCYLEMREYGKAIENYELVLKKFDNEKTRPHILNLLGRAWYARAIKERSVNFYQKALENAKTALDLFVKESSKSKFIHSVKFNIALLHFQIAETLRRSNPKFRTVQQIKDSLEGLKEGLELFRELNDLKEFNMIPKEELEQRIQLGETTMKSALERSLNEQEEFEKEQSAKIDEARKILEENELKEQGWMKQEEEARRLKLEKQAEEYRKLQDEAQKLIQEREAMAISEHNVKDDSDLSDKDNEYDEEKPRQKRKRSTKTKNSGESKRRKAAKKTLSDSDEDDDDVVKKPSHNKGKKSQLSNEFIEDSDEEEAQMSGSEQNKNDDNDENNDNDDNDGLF

[2] = biological target: T2, Rpb2 (Pol II subunit) (yeast, UniProt P08518 1-1224); assay: cross-linking; Pol II-Paf1C-TFIIS EC after SEC, 425 μg/ml, 0.5 mM BS3, 30 min, 30 °C; trypsin, Orbitrap Fusion LC-MS/MS, pLink, FDR 1%; details: both partners purified
T2 construct: Rpb2, subunit of yeast Pol II; source: part of purified Pol II

[3] = biological target: T3, Leo1 (S. cerevisiae, UniProt P38439 1-464); assay: as above; details: both partners purified
T3 construct: Leo1, S. cerevisiae, open reading frame chemically synthesized (codon-optimised), in pCDFDuet-1; source: E. coli BL21 CodonPlus(DE3)RIL, coexpressed with the other subunits; in lysate and purified as part of Paf1C
T3 sequence (looked up): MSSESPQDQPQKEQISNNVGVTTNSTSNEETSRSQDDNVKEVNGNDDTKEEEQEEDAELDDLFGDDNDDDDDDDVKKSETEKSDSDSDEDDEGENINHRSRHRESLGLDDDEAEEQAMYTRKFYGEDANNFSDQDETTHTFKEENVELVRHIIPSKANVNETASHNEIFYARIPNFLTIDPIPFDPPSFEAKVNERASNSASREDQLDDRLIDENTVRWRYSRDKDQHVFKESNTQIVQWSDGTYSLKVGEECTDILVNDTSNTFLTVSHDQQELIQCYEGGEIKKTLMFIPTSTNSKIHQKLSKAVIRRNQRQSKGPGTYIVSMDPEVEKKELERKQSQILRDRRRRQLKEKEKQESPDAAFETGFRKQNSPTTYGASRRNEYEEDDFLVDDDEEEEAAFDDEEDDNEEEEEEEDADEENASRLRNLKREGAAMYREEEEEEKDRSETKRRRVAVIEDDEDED

[4] = biological target: T4, Ctr9-ΔC913 (S. cerevisiae, UniProt P89105 1-913); assay: as above; details: both partners purified
T4 construct: Ctr9, S. cerevisiae, variant lacking 164 amino acids at its C terminus (Ctr9-ΔC913); also called Ctr9 (in the Pol II-Paf1C-TFIIS EC); source: E. coli BL21 CodonPlus(DE3)RIL, coexpressed with the other subunits; in lysate and purified as part of Paf1C-Ctr9-ΔC913
T4 sequence (looked up): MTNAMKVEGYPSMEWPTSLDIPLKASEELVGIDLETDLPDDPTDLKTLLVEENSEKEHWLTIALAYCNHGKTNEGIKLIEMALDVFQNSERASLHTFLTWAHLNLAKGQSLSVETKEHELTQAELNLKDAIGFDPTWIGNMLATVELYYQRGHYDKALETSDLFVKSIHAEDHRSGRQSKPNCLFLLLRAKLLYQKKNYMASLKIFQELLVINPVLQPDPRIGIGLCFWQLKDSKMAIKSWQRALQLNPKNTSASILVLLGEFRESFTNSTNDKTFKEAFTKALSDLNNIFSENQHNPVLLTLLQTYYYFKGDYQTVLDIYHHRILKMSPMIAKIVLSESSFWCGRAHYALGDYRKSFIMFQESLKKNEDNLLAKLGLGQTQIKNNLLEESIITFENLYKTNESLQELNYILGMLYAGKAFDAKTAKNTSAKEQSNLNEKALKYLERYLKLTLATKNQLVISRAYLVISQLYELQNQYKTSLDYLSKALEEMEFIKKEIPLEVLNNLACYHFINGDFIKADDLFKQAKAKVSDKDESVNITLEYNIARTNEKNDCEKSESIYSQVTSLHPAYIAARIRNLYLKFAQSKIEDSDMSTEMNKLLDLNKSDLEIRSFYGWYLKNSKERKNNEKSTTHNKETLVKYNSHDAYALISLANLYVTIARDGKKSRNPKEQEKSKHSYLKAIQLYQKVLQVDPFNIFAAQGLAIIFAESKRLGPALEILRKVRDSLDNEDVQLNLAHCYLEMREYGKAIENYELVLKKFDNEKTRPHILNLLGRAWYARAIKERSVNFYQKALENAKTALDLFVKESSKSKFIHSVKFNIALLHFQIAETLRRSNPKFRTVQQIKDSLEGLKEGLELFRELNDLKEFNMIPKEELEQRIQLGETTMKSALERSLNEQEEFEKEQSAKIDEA

[5] = biological target: T5, Rtf1 (S. cerevisiae, UniProt P53064 1-558); assay: as above; details: both partners purified
T5 construct: Rtf1, S. cerevisiae, full length, amplified from genomic DNA; source: E. coli BL21 CodonPlus(DE3)RIL, coexpressed with Cdc73; in lysate and purified as part of Paf1C
T5 sequence (P53064 whole entry): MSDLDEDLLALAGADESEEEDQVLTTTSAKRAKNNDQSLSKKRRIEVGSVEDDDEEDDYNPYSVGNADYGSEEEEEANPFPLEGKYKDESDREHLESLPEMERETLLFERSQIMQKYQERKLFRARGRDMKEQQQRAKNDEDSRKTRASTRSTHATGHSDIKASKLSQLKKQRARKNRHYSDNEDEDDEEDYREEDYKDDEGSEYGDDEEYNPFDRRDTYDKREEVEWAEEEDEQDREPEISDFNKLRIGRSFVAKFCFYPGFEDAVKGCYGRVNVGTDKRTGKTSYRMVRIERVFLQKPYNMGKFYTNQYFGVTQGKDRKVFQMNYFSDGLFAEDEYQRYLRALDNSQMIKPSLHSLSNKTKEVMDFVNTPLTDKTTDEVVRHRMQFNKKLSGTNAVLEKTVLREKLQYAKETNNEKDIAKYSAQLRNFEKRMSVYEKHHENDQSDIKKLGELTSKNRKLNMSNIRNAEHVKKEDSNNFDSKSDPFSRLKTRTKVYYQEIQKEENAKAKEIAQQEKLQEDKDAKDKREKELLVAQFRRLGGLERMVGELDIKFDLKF

T2 sequence (P08518 whole entry, the tested form may be a part): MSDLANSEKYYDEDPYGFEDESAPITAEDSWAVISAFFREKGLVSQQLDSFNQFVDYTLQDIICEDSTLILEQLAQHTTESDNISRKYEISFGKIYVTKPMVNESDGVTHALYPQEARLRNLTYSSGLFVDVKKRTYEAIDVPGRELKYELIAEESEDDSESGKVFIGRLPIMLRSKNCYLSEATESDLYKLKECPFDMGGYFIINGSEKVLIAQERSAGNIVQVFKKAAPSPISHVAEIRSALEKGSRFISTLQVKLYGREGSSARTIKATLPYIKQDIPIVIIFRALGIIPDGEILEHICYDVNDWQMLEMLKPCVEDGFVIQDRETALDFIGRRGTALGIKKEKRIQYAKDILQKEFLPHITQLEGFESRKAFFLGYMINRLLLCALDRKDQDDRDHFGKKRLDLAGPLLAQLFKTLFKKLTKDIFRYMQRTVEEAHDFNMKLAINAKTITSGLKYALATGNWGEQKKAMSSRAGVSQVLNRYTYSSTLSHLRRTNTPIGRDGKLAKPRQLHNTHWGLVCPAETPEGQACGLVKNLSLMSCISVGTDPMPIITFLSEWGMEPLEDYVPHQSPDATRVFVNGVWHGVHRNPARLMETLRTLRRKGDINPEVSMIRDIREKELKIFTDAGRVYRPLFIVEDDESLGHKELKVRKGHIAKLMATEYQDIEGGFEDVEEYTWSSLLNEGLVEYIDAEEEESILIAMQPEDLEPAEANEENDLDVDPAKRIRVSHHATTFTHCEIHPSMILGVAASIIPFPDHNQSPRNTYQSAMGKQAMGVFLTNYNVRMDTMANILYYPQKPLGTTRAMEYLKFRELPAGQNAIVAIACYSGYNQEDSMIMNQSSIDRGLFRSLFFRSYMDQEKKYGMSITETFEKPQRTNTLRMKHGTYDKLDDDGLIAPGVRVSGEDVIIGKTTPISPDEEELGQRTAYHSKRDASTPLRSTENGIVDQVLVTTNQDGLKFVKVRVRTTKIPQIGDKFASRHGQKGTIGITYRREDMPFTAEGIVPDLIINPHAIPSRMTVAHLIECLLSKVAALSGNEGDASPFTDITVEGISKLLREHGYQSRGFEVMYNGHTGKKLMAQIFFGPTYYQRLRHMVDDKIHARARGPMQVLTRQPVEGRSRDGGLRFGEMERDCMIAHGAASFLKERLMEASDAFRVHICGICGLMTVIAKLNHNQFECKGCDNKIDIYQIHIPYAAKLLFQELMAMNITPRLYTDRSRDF

- binding result [1]: binds
- binding result [2]: binds
- binding result [3]: binds
- binding result [4]: binds
- binding result [5]: binds
B1: Paf1 (natural protein, S. cerevisiae, UniProt P38351 1-445, looked up)
chain: MSKKQEYIAPIKYQNSLPVPQLPPKLLVYPESPETNADSSQLINSLYIKTNVTNLIQQDEDLGMPVDLMKFPGLLNKLDSKLLYGFDNVKLDKDDRILLRDPRIDRLTKTDISKVTFLRRTEYVSNTIAAHDNTSLKRKRRLDDGDSDDENLDVNHIISRVEGTFNKTDKWQHPVKKGVKMVKKWDLLPDTASMDQVYFILKFMGSASLDTKEKKSLNTGIFRPVELEEDEWISMYATDHKDSAILENELEKGMDEMDDDSHEGKIYKFKRIRDYDMKQVAEKPMTELAIRLNDKDGIAYYKPLRSKIELRRRRVNDIIKPLVKEHDIDQLNVTLRNPSTKEANIRDKLRMKFDPINFATVDEEDDEDEEQPEDVKKESEGDSKTEGSEQEGENEKDEEIKQEKENEQDEENKQDENRAADTPETSDAVHTEQKPEEEKETLQEE
notes: Paf1, S. cerevisiae, open reading frame chemically synthesized (codon-optimised), in pCDFDuet-1; also called polymerase-associated factor 1; source: E. coli BL21 CodonPlus(DE3)RIL, coexpressed with the other subunits; in lysate and purified as part of Paf1C
